{"source": "paper PMC8491902", "about": "“Experimental and computational investigation of enzyme functional annotations uncovers misannotation in the EC 1.1.3.15 enzyme class” (PLoS Computational Biology, 2021)", "molecules": {"B1": {"name": "D4MUV9 (Anaerostipes hadrus) (protein)", "chain": "MSEYQYNKVTPEMIEKFKEIAPKRVLVGDEINEDFTHDEMAIYGKARPEVLVEATSTEEVAAVVKLCNENKIPVTPSGARTGLVGGAVSIGGGVMISLTKMNKILGYDKENFVVKIQSGVLLNDLAQDAEKQGLLYPPDPGEKFATVGGNVATNAGGMRAVKYGCTRDYVRAMTVVLPTGEIVKLGATVSKTSSGYSLLNLMIGSEGTLGIITELTLKVIPAPKSVISLIIPYENLEDCIATVPQFFMHHLAPQALEFMEKEVVMDTEKFLGKQVYPKELEGTEIGAYLLATFDGNSEEQLEDIIEQASEVVLEAGAIDVLVADTPALKKDAWAVRGALLEAIEADTVLLDECDVVVPTNKIAEFLTYTKSLEAEADFRVKSFGHAGDGNLHIYTCSNDMEEGEFKKQVAVFMDKVYAKATEFGGMISGEHGIGHGKMDYLAESLGPVQMRIMEGVKEVFDPNMILNPGKICYKL"}, "B2": {"name": "A0A0R3K2G2 (Caloramator mitchellensis) (protein)", "chain": "MFDVAIIGAGVIGCSIARELSKYNLNVALIEKENDVGNVTTKANSAIIHAGYDAKPGTLKGKLNAKGNLMFDELCRELEVPFKRVGSLVLAFDDDEMKTLGKLYEQGIQNGVPELYILSKEKVLEMDPNISDNIKGALYAKTGGIIGPWEFTIALAENAVENGVNIFLSNEVVDIEKKDFGYRIITNKDTYDTKYVVNCAGLYADKINNMVSNNKMEIIPRRGQYYLLDKTVGNLVKYVIFQCPSKLGKGVLVTPTVHGNLLIGPDAEDLIDKTALNTTSEGLNFIVEVARRSVKTLPLNMAITNFAGLRARTERDDFIIEEAVDAKGFINVAGIESPGLSSAPAISLYVIDILKNIAKKIEKKENFNPYRRAIPKFIELSEDEKNELVKKDKRFGKIICRCESITEGEIVSAIHRNVGARTVDAVKRRVRAGMGRCQGGFCSPRVIEILARELGVEMTEIEKDHEGSYILTGPTKSEVQ"}}, "key": {"C9Y9E7": {"target": "T1, C9Y9E7 (Curvibacter putative symbiont of Hydra magnipapillata, UniProt C9Y9E7)", "T1 construct": "gene lldD; full-length synthetic gene in pET21a, C-terminal linker and deca-His tag, soluble E. coli BL21(DE3) lysate", "T1 sequence (C9Y9E7 1-381)": "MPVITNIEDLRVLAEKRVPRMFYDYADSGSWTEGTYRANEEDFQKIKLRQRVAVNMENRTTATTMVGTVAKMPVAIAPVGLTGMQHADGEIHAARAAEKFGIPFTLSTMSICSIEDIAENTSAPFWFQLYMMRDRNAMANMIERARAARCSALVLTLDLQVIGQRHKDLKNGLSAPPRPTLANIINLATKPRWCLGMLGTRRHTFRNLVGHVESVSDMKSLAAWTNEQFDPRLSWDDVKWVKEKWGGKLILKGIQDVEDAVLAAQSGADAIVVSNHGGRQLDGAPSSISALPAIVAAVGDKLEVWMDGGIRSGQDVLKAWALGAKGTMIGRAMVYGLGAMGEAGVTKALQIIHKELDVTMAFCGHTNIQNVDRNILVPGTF", "test": "Amplex Red peroxide assay", "format": "biochemical", "conditions": "[…] DL-mandelate; […] HEPES pH […]; HRP; lysate"}, "W6W585": {"target": "T2, W6W585 (Rhizobium sp. CF080, UniProt W6W585)", "T2 construct": "gene PMI07_004712; full-length synthetic gene in pET21a, C-terminal linker and deca-His tag, soluble E. coli BL21(DE3) lysate", "T2 sequence (W6W585 1-409)": "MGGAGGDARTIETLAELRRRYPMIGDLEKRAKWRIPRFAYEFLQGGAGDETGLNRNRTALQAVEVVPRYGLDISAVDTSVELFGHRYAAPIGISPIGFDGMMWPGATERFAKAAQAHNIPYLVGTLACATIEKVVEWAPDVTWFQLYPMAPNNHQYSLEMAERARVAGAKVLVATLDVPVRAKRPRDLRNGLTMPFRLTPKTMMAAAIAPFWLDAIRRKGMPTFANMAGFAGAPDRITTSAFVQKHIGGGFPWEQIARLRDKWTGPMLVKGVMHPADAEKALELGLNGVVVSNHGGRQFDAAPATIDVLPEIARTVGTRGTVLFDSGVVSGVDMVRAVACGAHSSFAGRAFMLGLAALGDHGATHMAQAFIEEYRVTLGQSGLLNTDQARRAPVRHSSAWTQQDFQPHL", "test": "Amplex Red peroxide assay", "format": "biochemical", "conditions": "[…] DL-mandelate; […] HEPES pH […]; HRP; lysate"}, "E6SCX5": {"target": "T3, E6SCX5 (Intrasporangium calvum, UniProt E6SCX5)", "T3 construct": "gene Intca_2052; full-length synthetic gene in pET21a, C-terminal linker and deca-His tag, soluble E. coli BL21(DE3) lysate", "T3 sequence (E6SCX5 1-415)": "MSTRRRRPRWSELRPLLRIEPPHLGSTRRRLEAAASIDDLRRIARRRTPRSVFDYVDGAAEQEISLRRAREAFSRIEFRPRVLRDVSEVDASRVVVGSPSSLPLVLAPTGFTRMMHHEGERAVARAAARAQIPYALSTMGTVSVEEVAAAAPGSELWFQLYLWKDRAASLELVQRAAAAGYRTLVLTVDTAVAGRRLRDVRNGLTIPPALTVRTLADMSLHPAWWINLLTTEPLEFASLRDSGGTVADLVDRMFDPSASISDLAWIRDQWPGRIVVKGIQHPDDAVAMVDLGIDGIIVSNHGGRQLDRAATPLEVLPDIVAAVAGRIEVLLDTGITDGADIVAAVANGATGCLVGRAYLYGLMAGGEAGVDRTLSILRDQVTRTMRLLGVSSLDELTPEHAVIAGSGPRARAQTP", "test": "Amplex Red peroxide assay", "format": "biochemical", "conditions": "1 mM DL-mandelate; 20 mM HEPES pH 7.4; HRP; lysate"}, "B8MKR3": {"target": "T4, B8MKR3 (Talaromyces stipitatus, UniProt B8MKR3)", "T4 construct": "gene TSTA_043820", "T4 sequence (B8MKR3 1-496)": "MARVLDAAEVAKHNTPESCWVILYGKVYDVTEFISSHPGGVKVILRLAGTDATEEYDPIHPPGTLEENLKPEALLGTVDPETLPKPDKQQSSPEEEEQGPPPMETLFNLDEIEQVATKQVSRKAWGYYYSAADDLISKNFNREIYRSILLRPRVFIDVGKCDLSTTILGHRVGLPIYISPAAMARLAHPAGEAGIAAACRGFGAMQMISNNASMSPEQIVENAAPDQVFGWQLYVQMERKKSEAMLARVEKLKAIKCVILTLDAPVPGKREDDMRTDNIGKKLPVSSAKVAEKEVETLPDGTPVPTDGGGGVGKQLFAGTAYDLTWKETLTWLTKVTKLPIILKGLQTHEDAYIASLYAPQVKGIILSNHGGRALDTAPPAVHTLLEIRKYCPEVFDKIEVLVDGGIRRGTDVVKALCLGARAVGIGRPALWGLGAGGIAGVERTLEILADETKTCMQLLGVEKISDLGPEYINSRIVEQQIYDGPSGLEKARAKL", "test": "cytochrome c reduction at […] nm", "format": "biochemical", "conditions": "2 mM substrate; 0.1 mM cytochrome c; 20 mM HEPES pH 7.4"}, "purified protein [1]": {"substrate": "C[C@@H](O)C(=O)O", "test": "purified protein", "conditions": "DCPIP + PMS as electron acceptor, 20 mM HEPES pH 7.4, 25 °C"}, "purified protein [2]": {"substrate": "O=P(O)(O)OC[C@H](O)CO", "test": "purified protein", "format": "biochemical, Caloramator mitchellensis", "conditions": "DCPIP + PMS as electron acceptor, 20 mM HEPES pH 7.4, 25 °C"}}, "data": [{"molecule": "O=C(O)C(O)c1ccccc1", "note": "(racemic) [DL-mandelate]", "values": [{"measurement": "Amplex Red peroxide assay", "setting": "C9Y9E7", "value": "the four proteins display a high activity with mandelate"}, {"measurement": "Amplex Red peroxide assay", "setting": "W6W585", "value": "the four proteins display a high activity with mandelate"}, {"measurement": "Amplex Red peroxide assay", "setting": "E6SCX5", "value": "the four proteins display a high activity with mandelate"}]}, {"molecule": "C[C@H](O)C(=O)O", "note": "[L-lactate]", "values": [{"measurement": "cytochrome c reduction at 550 nm", "setting": "B8MKR3", "value": "the B8MKR3 protein displayed cytochrome b2 L-lactate dehydrogenase activity"}]}, {"molecule": "B1", "values": [{"measurement": "Km", "setting": "purified protein [1]", "value": "0.40 +/- 0.04 x 10^-3 M"}, {"measurement": "kcat", "setting": "purified protein [1]", "value": 5.18, "unit": "s⁻¹"}, {"measurement": "kcat/Km", "setting": "purified protein [1]", "value": 13100, "unit": "M⁻¹ s⁻¹"}]}, {"molecule": "B2", "values": [{"measurement": "Km", "setting": "purified protein [2]", "value": "1.97 +/- 0.23 x 10^-3 M"}, {"measurement": "kcat", "setting": "purified protein [2]", "value": 0.242, "unit": "s⁻¹"}, {"measurement": "kcat/Km", "setting": "purified protein [2]", "value": 123, "unit": "M⁻¹ s⁻¹"}]}]}
